According to patent publication US20130005646A1 (Novo Nordisk, published 2013):
Starred links: 1 amine or outer side, 2 acyl side, 3 side chain; linkers in the order of their positions; H or OH if unused. Positions of bridges follow the written chain, without caps; N, C: chain ends. *: point of attachment. C20 diacid = O=C(O)CCCCCCCCCCCCCCCCCCC(=O)*; γGlu = O=C(O)[C@H](CCC(=O)[*:2])N[*:1]

T1: human amylin 3(a) receptor (human calcitonin receptor + RAMP-3) (human, UniProt P30988 25-474; O60896 24-148)
T1 sequence (looked up) 1: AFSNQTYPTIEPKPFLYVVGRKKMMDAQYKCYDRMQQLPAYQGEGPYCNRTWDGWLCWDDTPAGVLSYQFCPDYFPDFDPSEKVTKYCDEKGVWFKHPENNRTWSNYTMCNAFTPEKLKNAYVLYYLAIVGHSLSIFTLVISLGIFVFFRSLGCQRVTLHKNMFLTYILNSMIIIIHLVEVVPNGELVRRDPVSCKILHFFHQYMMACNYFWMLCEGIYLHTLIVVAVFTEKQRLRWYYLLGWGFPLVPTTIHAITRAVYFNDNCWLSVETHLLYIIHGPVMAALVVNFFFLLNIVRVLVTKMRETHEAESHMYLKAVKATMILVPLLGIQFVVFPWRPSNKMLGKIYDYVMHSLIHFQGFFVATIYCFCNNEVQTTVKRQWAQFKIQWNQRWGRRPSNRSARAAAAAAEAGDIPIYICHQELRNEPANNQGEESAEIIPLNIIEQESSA
T1 sequence (looked up) 2: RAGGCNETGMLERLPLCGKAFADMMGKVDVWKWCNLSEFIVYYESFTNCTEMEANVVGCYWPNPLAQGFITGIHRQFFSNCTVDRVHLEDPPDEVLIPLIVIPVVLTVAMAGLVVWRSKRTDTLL

T2: human calcitonin (a) receptor (human, UniProt P30988 25-474)
T2 sequence (looked up): T1 sequence (looked up) 1

B1: N-alpha-[(S)-4-Carboxy-4-(19-carboxynonadecanoylamino)butyryl]-[His1,Glu8,Glu14,His17,Arg18]-pramlintide (peptide)
peptide: {C20 diacid-γGlu}-HCNTATCETQRLAEFLHRSSNNFGPILPPTNVGSNTY-NH2
modifications: disulfide 2-7
SMILES: CC[C@H](C)[C@H](NC(=O)[C@@H]1CCCN1C(=O)CNC(=O)[C@H](Cc1ccccc1)NC(=O)[C@H](CC(N)=O)NC(=O)[C@H](CC(N)=O)NC(=O)[C@H](CO)NC(=O)[C@H](CO)NC(=O)[C@H](CCCNC(=N)N)NC(=O)[C@H](Cc1c[nH]cn1)NC(=O)[C@H](CC(C)C)NC(=O)[C@H](Cc1ccccc1)NC(=O)[C@H](CCC(=O)O)NC(=O)[C@H](C)NC(=O)[C@H](CC(C)C)NC(=O)[C@H](CCCNC(=N)N)NC(=O)[C@H](CCC(N)=O)NC(=O)[C@@H](NC(=O)[C@H](CCC(=O)O)NC(=O)[C@@H]1CSSC[C@H](NC(=O)[C@H](Cc2c[nH]cn2)NC(=O)CC[C@H](NC(=O)CCCCCCCCCCCCCCCCCCC(=O)O)C(=O)O)C(=O)N[C@@H](CC(N)=O)C(=O)N[C@@H]([C@@H](C)O)C(=O)N[C@@H](C)C(=O)N[C@@H]([C@@H](C)O)C(=O)N1)[C@@H](C)O)C(=O)N[C@@H](CC(C)C)C(=O)N1CCC[C@H]1C(=O)N1CCC[C@H]1C(=O)N[C@H](C(=O)N[C@@H](CC(N)=O)C(=O)N[C@H](C(=O)NCC(=O)N[C@@H](CO)C(=O)N[C@@H](CC(N)=O)C(=O)N[C@H](C(=O)N[C@@H](Cc1ccc(O)cc1)C(N)=O)[C@@H](C)O)C(C)C)[C@@H](C)O
B2: N-alpha-[(S)-4-Carboxy-4-(19-carboxynonadecanoylamino)butyryl]-[des1,Gly3,Glu14,His17,Arg18,Glu31,Gly35]-pramlintide (peptide)
peptide: {C20 diacid-γGlu}-CGTATCATQRLAEFLHRSSNNFGPILPPTEVGSGTY-NH2
modifications: disulfide 1-6
SMILES: CC[C@H](C)[C@H](NC(=O)[C@@H]1CCCN1C(=O)CNC(=O)[C@H](Cc1ccccc1)NC(=O)[C@H](CC(N)=O)NC(=O)[C@H](CC(N)=O)NC(=O)[C@H](CO)NC(=O)[C@H](CO)NC(=O)[C@H](CCCNC(=N)N)NC(=O)[C@H](Cc1c[nH]cn1)NC(=O)[C@H](CC(C)C)NC(=O)[C@H](Cc1ccccc1)NC(=O)[C@H](CCC(=O)O)NC(=O)[C@H](C)NC(=O)[C@H](CC(C)C)NC(=O)[C@H](CCCNC(=N)N)NC(=O)[C@H](CCC(N)=O)NC(=O)[C@@H](NC(=O)[C@H](C)NC(=O)[C@@H]1CSSC[C@H](NC(=O)CC[C@H](NC(=O)CCCCCCCCCCCCCCCCCCC(=O)O)C(=O)O)C(=O)NCC(=O)N[C@@H]([C@@H](C)O)C(=O)N[C@@H](C)C(=O)N[C@@H]([C@@H](C)O)C(=O)N1)[C@@H](C)O)C(=O)N[C@@H](CC(C)C)C(=O)N1CCC[C@H]1C(=O)N1CCC[C@H]1C(=O)N[C@H](C(=O)N[C@@H](CCC(=O)O)C(=O)N[C@H](C(=O)NCC(=O)N[C@@H](CO)C(=O)NCC(=O)N[C@H](C(=O)N[C@@H](Cc1ccc(O)cc1)C(N)=O)[C@@H](C)O)C(C)C)[C@@H](C)O

Tests used:
[1] = target: T1, human amylin 3(a) receptor (human …); experiment: cell-based or functional assay
[2] = target: T2, human calcitonin (a) receptor; experiment: cell-based or functional assay

Binder | Amylin receptor human EC50 [1] [nM] | CTa receptor human EC50 [2] [nM]
B1 | 0.602 | 4.3
B2 | 0.164 | 0.222
